Data set [1] concerns the target PARP-1 (purified, Trevigen) (UniProt P09874 1-1014). The experiment in a line: EMSA; EMSA: 50 mM Tris-HCl pH 7.5, 50 mM NaCl, 1 mM MgCl2, 0.5 mM DTT, 4% glycerol, 0.5 mM EDTA, 0.25 mg/ml poly(dI-dC), 20 min, gel at room temperature; ONP: 60 mM KCl, 12 mM HEPES pH 7.9, 4 mM Tris-HCl, 5% glycerol, 0.5 mM EDTA, 1 mM DTT, 4 C, 3 h. The note with it: protein: commercial; label: 32P; blunt.

Data set [2] has as its target GST-HOXB7 (UniProt P09629 1-217). The experiment in a line: EMSA; no PARP-1; competed by 100-fold unlabeled probe; EMSA: 50 mM Tris-HCl pH 7.5, 50 mM NaCl, 1 mM MgCl2, 0.5 mM DTT, 4% glycerol, 0.5 mM EDTA, 0.25 mg/ml poly(dI-dC), 20 min, gel at room temperature; ONP: 60 mM KCl, 12 mM HEPES pH 7.9, 4 mM Tris-HCl, 5% glycerol, 0.5 mM EDTA, 1 mM DTT, 4 C, 3 h. To be noted: protein: recombinant; tags: GST; label: 32P; blunt.

Sequence of GST-HOXB7 (P09629 whole entry): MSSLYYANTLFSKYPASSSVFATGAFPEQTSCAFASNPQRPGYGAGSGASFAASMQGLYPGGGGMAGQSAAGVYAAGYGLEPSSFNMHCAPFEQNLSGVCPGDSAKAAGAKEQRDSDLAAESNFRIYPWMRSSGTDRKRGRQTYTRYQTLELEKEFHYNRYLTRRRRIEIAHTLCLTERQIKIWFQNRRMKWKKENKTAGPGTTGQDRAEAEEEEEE
Sequence of PARP-1 (purified, Trevigen) (P09874 whole entry): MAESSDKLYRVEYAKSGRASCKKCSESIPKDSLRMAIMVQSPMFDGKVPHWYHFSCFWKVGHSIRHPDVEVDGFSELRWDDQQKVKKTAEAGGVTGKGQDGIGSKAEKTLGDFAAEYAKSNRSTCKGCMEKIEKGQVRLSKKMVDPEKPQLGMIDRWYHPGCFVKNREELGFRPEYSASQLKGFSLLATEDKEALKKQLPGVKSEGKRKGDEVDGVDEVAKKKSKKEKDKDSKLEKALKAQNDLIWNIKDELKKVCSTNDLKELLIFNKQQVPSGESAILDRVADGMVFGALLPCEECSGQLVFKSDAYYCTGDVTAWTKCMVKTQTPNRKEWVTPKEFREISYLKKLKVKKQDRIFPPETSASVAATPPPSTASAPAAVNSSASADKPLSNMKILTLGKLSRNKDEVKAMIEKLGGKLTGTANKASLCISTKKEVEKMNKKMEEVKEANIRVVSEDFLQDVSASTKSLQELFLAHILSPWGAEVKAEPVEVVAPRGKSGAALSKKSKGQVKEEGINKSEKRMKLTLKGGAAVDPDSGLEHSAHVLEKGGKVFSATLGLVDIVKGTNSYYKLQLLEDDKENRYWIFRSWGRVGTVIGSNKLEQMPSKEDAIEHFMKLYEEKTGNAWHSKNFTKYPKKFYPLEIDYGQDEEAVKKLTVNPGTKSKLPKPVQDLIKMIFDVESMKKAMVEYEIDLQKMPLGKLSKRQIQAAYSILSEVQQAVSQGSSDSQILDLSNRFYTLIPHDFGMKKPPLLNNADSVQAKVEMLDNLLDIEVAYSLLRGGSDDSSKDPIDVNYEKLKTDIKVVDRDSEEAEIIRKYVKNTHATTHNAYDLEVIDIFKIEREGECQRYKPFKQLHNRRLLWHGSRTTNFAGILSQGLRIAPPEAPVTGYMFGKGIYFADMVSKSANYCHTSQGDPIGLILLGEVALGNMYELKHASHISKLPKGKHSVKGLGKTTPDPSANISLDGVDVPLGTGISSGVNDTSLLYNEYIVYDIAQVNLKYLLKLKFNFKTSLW

B1: HBS EMSA probe (dsDNA)
DNA 1: AAATATCAATTAAATCTTAATTATAA
DNA 2: TTATAATTAAGATTTAATTGATATTT
Turning to B1, the results for the binding result in data set [1] and in data set [2] were “no binding” and “binds”, respectively.

These data come from paper PMC3402478, “ADP Ribosylation by PARP-1 Suppresses HOXB7 Transcriptional Activity”.
